The results in this text go back to patent US20230192896A1 (BIOVERATIV THERAPEUTICS, published 2023).

In this experiment the target is T1, non-activatable Factor X (FXn) (Homo sapiens (Human), UniProt P00742 41-488, single biotin on the C-terminal BioTag).
T1 construct: also called BIIB-FX-015
Kind of experiment: BLI; class meaning: paragraph 285.

B1: BIIB-12-930 (antibody, V domains shown)
VH: QVQLVQSGAEVKKPGASVKVSCKASGYTFTSYYMHWVRQAPGQGLEWMGIINPSGGSTSYAQKFQGRVTMTRDTSTSTVYMELSSLRSEDTAVYYCARVRQKATLLFQHWGQGTLVTVSS
VL: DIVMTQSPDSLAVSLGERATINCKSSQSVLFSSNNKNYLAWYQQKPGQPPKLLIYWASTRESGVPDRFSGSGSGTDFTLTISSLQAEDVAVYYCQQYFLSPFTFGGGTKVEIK
notes: IgG
Take B1: the binding result is “binds”.

B2: BIIB-12-920 (antibody, V domains shown)
VH: QVQLVQSGAEVKKPGASVKVSCKASGYTFTSYGISWVRQAPGQGLEWMGWISPYNGNTNYAQKLQGRVTMTTDTSTSTAYMELRSLRSDDTAVYYCARGSGHTTMFWGQGTLVTVSS
VL: EIVMTQSPATLSVSPGERATLSCRASQSVSSNLAWYQQKPGQAPRLLIYSASTRATGIPARFSGSGSGTEFTLTISSLQSEDFAVYYCQQANAYPPTFGGGTKVEI
notes: IgG
In the case of B2, the binding result is “binds”.

B3: BIIB-12-926 (antibody, V domains shown)
VH: QVQLVQSGAEVKKPGASVKVSCKASGYTFTSYYMHWVRQAPGQGLEWMGIINPSGGSTSYAQKFQGRVTMTRDTSTSTVYMELSSLRSEDTAVYYCARDGRMARGASPDYWGQGTLVTVSS
VL: EIVMTQSPATLSVSPGERATLSCRASQSVSSNLAWYQQKPGQAPRLLIYGASTRATGIPARFSGSGSGTEFTLTISSLQSEDFAVYYCQQHSFWPPTFGGGTKVEIK
notes: IgG
With B3, the binding result is reported as “binds”.

B4: BIIB-12-927 (antibody, V domains shown)
VH: QVQLVQSGAEVKKPGASVKVSCKASGYTFTSYYMSWVRQAPGQGLEWMGIINPSGGSTSYAQKFQGRVTMTRDTSTSTVYMELSSLRSEDTAVYYCARDSGRKRYYYMDVWGKGTTVTVSS
VL: EIVMTQSPATLSVSPGERATLSCRASQSVSSNLAWYQQKPGQAPRLLIYGASTRATGIPARFSGSGSGTEFTLTISSLQSEDFAVYYCQQFNLWPFTFGGGTKVEIK
notes: IgG
Turning to B4, the binding result is “binds”.

B5: BIIB-12-931 (antibody, V domains shown)
VH: QVQLVQSGAEVKKPGASVKVSCKASGYTFTSYYMSWVRQAPGQGLEWMGIINPSGGSTSYAQKFQGRVTMTRDTSTSTVYMELSSLRSEDTAVYYCARDPVQEYGPYYYYMDVWGKGTTVTVSS
VL: EIVMTQSPATLSVSPGERATLSCRASQSVSSNLAWYQQKPGQAPRLLIYGASTRATGIPARFSGSGSGTEFTLTISSLQSEDFAVYYCQQAAYWPWTFGGGTKVEIK
notes: IgG
Regarding B5, the binding result is “binds”.

B6: BIIB-12-923 (antibody, V domains shown)
VH: QVQLVQSGAEVKKPGASVKVSCKASGYTFTSYYMHWVRQAPGQGLEWMGIINPSGGSTSYAQKFQGRVTMTRDTSTSTVYMELSSLRSEDTAVYYCARGAGYLQRAFDIWGQGTMVTVSS
VL: DIQMTQSPSTLSASVGDRVTITCRASQSISSWLAWYQQKPGKAPKLLIYKASSLESGVPSRFSGSGSGTEFTLTISSLQPDDFATYYCQQFKSLSFTFGGGTKVEIK
notes: IgG
With B6, the binding result is recorded as “binds”.

B7: BIIB-12-914 (antibody, V domains shown)
VH: QVQLVQSGAEVKKPGASVKVSCKASGYTFTSYYMHWVRQAPGQGLEWMGIINPSGGSTSYAQKFQGRVTMTRDTSTSTVYMELSSLRSEDTAVYYCARAPRYRGTMDVWGQGTTVTVSS
VL: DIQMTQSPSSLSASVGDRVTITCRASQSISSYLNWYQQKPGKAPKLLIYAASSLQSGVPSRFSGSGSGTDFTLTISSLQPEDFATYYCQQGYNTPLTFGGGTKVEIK
notes: IgG; also called BIB-12-914
As for B7, the binding result is given as “binds”.

B8: BIIB-12-929 (antibody, V domains shown)
VH: QVQLVQSGAEVKKPGASVKVSCKASGYTFTSYYMHWVRQAPGQGLEWMGIINPSGGSTSYAQKFQGRVTMTRDTSTSTVYMELSSLRSEDTAVYYCARDQGYSRSFDIWGQGTMVTVSS
VL: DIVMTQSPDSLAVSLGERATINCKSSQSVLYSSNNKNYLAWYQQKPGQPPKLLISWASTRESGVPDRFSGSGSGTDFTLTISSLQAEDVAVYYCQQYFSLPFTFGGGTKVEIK
notes: IgG
On to B8, for which the binding result is on record as “binds”.

B9: BIIB-12-913 (antibody, V domains shown)
VH: QVQLVQSGAEVKKPGASVKVSCKASGYTFTSYGISWVRQAPGQGLEWMGWISAYNGNTNYAQKLQGRVTMTTDTSTSTAYMELRSLRSDDTAVYYCARGGVSRFWGQGTLVTVSS
VL: EIVMTQSPATLSVSPGERATLSCRASQSVSSNLAWYQQKPGQAPRLLIYGASTRATGIPARFSGSGSGTEFTLTISSLQSEDFAVYYCQQYAPYPPLTFGGGTKVEIK
notes: IgG
In the case of B9, the binding result was “binds”.

B10: BIIB-12-922 (antibody, V domains shown)
VH: QVQLVQSGAEVKKPGASVKVSCKASGYTFTSYYMHWVRQAPGQGLEWMGIINPSGGSTSYAQKFQGRVTMTRDTSTSTVYMELSSLRSEDTAVYYCARRGRIAGMWGQGTTVTVSS
VL: not shown
notes: IgG
Regarding B10, the binding result is given as “binds”.

B11: BIIB-12-1314 (antibody, V domains shown)
VH: QVQLVESGGGVVQPGRSLRLSCAASGFTFSSYGMHWVRQAPGKGLEWVAVISYDGSNKYYADSVKGRFTISRDNSKNTLYLQMNSLRAEDTAVYYCAKGTRWAGNWGQGTLVTVSS
VL: DIQMTQSPSSVSASVGDRVTITCRASQGISSWLAWYQQKPGKAPKLLIYAASSLQSGVPSRFSGSGSGTDFTLTISSLQPEDFATYYCQQANFFPITFGGGTKVEIK
notes: IgG
Consider B11, for which the binding result is on record as “binds”.

B12: BIIB-12-910 (antibody, V domains shown)
VH: QVQLQESGPGLVKPSQTLSLTCTVSGGSISSGGYYWSWIRQHPGKGLEWIGSIYYSGSTYYNPSLKSRVTISVDTSKNQFSLKLSSVTAADTAVYYCARGPLQRQVRYFDLWGRGTLVTVSS
VL: DIQMTQSPSSLSASVGDRVTITCRASQSISSYLNWYQQKPGKAPKLLIYAASSLQSGVPSRFSGSGSGTDFTLTISSLQPEDFATYYCQQLSHTPFTFGGGTKVEIK
notes: IgG
As for B12, the binding result is on record as “binds”.

B13: BIIB-12-924 (antibody, V domains shown)
VH: QVQLVESGGGVVQPGRSLRLSCAASGFTFSSYGMHWVRQAPGKGLEWVAVISYDGSNKYYADSVKGRFTISRDNSKNTLYLQMNSLRAEDTAVYYCAKGKSSERGLNPWGQGTLVTVSS
VL: DIQMTQSPSSVSASVGDRVTITCRASQGISSWLAWYQQKPGKAPKLLIYAASSLQSGVPSRFSGSGSGTDFTLTISSLQPEDFATYYCQQGNSFPLTFGGGTKVEIK
notes: IgG
Take B13: the binding result is “binds”.

B14: BIIB-12-918 (antibody, V domains shown)
VH: QVQLVESGGGVVQPGRSLRLSCAASGFTFSSYGMHWVRQAPGKGLEWVAVISYDGSNKYYADSVKGRFTISRDNSKNTLYLQMNSLRAEDTAVYYCAKSLGGRSFDIWGQGTMVTVSS
VL: DIQMTQSPSSLSASVGDRVTITCRASQSISRYLNWYQQKPGKAPKLLIYAASSLQSGVPSRFSGSGSGTDFTLTISSLQPEDFATYYCQQIFSLPITFGGGTKVEIK
notes: IgG
For the molecule B14, the binding result was “binds”.

B15: BIIB-12-921 (antibody, V domains shown)
VH: QVQLVESGGGVVQPGRSLRLSCAASGFTFSSYGMHWVRQAPGKGLEWVAVISYDGSNKYYADSVKGRFTISRDNSKNTLYLQMNSLRAEDTAVYYCAKVGDRGTRAFDPWGQGTLVTVSS
VL: DIQMTQSPSSVSASVGDRVTITCRASQGISRWLAWYQQKPGKAPKLLIYAASSLQSGVPSRFSGSGSGTDFTLTISSLQPEDFATYYCQQGNVFPLTFGGGTKVEIK
notes: IgG
For B15, the binding result is reported as “binds”.

B16: BIIB-12-916 (antibody, V domains shown)
VH: QVQLVQSGAEVKKPGASVKVSCKASGYTFTSYYMHWVRQAPGQGLEWMGIINPSGGSTSYAQKFQGRVTMTRDTSTSTVYMELSSLRSEDTAVYYCARGGRQKATRRVDVWGQGTVVTVSS
VL: DIQMTQSPSSLSASVGDRVTITCRASQSISSYLNWYQQKPGKAPKLLIYAASSLQSGVPSRFSGSGSGTDFTLTISSLQPEDFATYYCQQLAITPFTFGGGTKVEIK
notes: IgG
As to B16, the binding result is listed as “binds”.

B17: BIIB-12-908 (antibody, V domains shown)
VH: QVQLVESGGGVVQPGRSLRLSCAASGFTFSSYGMHWVRQAPGKGLEWVAVISYDGSNKYYADSVKGRFTISRDNSKNTLYLQMNSLRAEDTAVYYCAKGPRGMDVWGQGTTVTVSS
VL: DIQLTQSPSSVSASVGDRVTITCRASQGISSWLAWYQQKPGKAPKLLIYGASSLQSGVPSRFSGSGSGTDFTLTISSLQPEDFATYYCQQGSSLPITFGGGTKVEIK
notes: IgG
Turning to B17, the binding result is recorded as “binds”.

B18: BIIB-12-1300 (antibody, V domains shown)
VH: QVQLVESGGGVVQPGRSLRLSCAASGFTFSSYGMHWVRQAPGKGLEWVAVISYDGSNKYYADSVKGRFTISRDNSKNTLYLQMNSLRAEDTAVYYCARGSKYLHAWGQGTLVTVSS
VL: DIQMTQSPSSVSASVGDRVTITCRASQGISSWLAWYQQKPGKAPKLLIYAASSLQSGVPSRFSGSGSGTDFTLTISSLQPEDFATYYCQQASSFPPTFGGGTKVEIK
notes: IgG
For B18, the binding result is reported as “binds”.

B19: BIIB-12-1309 (antibody, V domains shown)
VH: QVQLVESGGGVVQPGRSLRLSCAASGFTFSSYGMHWVRQAPGKGLEWVAVISYDGSNKYYADSVKGRFTISRDNSKNTLYLQMNSLRAEDTAVYYCARGRYTSRYFQHWGQGTLVTVSS
VL: DIQMTQSPSSVSASVGDRVTITCRASQGISSWLAWYQQKPGKAPKLLIYAASSLQSGVPSRFSGSGSGTDFTLTISSLQPEDFATYYCQQANSLPITFGGGTKVEIK
notes: IgG
Take B19: the binding result is reported as “binds”.

B20: BIIB-12-915 (antibody, V domains shown)
VH: QLQLQESGPGLVKPSETLSLTCTVSGGSISSSRYYWGWIRQPPGKGLEWIGSIYYSGSTYYNPSLKSRVTISVDTSKNQFSLKLSSVTAADTAVYYCARVGGGYANPWGQGTLVTVSS
VL: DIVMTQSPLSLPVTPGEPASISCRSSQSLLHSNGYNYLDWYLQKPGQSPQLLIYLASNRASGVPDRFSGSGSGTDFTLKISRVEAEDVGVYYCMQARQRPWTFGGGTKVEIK
notes: IgG
As to B20, the binding result is “binds”.

B21: BIIB-12-919 (antibody, V domains shown)
VH: QVQLVQSGAEVKKPGASVKVSCKASGYTFTSYYMHWVRQAPGQGLEWMGVINPSGGSTSYAQKFQGRVTMTRDTSTSTVYMELSSLRSEDTAVYYCARGANIAVGRRYADYWGQGTLVTVSS
VL: DIQMTQSPSTLSASVGDRVTITCRASQSISSWLAWYQQKPGKAPKLLIYKASSLESGVPSRFSGSGSGTEFTLTISSLQPDDFATYYCQQVSSYPTFGGGTKVEIK
notes: IgG
As for B21, the binding result is “binds”.

B22: BIIB-12-911 (antibody, V domains shown)
VH: QVQLVESGGGVVQPGRSLRLSCAASGFTFSSYGMHWVRQAPGKGLEWVAVISYDGSNKYYADSVKGRFTISRDNSKNTLYLQMNSLRAEDTAVYYCARGRGMDVWGQGTTVTVSS
VL: EIVLTQSPATLSLSPGERATLSCRASQSVSSYLAWYQQKPGQAPRLLIYDASNRATGIPARFSGSGSGTDFTLTISSLEPEDFAVYYCQQRSNFPITFGGGTKVEIK
notes: IgG
For B22, the binding result is listed as “binds”.

B23: BIIB-12-909 (antibody, V domains shown)
VH: QVQLVESGGGVVQPGRSLRLSCAASGFTFSSYGMHWVRQAPGKGLEWVAVISYDGSNKYYADSVKGRFTISRDNSKNTLYLQMNSLRAEDTAVYYCAKGKHRRRSFDIWGQGTMVTVSS
VL: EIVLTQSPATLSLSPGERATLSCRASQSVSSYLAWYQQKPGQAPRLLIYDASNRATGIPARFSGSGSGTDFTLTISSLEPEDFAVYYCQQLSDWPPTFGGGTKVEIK
notes: IgG
In the case of B23, the binding result is given as “binds”.
